Source: article PMC3494861 (The Journal of Cell Biology, 2012)

Legend:
[1] = molecular target: His9-Tob37 (Tob37 with a 9x His tag, N. crassa strain Tob37HT) (N. crassa) (UniProt Q7SFC4); assay: isotope dilution mass spectrometry
[2] = molecular target: His9-Tob38 (Tob38 with a 9x His tag, N. crassa strain Tob38HT) (N. crassa) (UniProt V5IPB4); assay: isotope dilution mass spectrometry
[3] = molecular target: Tob55 (endogenous; long, intermediate and short isoforms) (N. crassa); assay: cross-linking
[4] = molecular target: His9-Tob55, short isoform (N. crassa strain Tob55 short HT) (N. crassa); assay: cryo-EM structure
[5] = molecular target: His9-Tob55, short isoform (N. crassa strain Tob55 short HT) (N. crassa); assay: isotope dilution mass spectrometry
[6] = molecular target: T1, His9-Tob37 (Tob37 with a 9x His tag, N. crassa strain Tob37HT) (N. crassa, UniProt Q7SFC4 1-442); assay: isotope dilution mass spectrometry
T1 sequence (looked up): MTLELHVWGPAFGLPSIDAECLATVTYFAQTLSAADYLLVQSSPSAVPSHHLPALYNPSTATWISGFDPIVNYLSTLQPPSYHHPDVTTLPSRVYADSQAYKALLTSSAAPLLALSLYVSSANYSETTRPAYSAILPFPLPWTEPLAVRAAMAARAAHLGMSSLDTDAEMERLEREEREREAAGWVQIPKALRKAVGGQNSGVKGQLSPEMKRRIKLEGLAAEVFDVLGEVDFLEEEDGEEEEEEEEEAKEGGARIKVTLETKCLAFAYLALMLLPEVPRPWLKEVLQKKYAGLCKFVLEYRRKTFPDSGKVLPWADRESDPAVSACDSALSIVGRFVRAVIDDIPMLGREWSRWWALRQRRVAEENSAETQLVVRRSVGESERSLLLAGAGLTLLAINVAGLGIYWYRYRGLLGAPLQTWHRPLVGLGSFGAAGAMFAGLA

[7] = molecular target: T2, His9-Tob38 (Tob38 with a 9x His tag, N. crassa strain Tob38HT) (N. crassa, UniProt V5IPB4 1-340); assay: isotope dilution mass spectrometry
T2 sequence (looked up): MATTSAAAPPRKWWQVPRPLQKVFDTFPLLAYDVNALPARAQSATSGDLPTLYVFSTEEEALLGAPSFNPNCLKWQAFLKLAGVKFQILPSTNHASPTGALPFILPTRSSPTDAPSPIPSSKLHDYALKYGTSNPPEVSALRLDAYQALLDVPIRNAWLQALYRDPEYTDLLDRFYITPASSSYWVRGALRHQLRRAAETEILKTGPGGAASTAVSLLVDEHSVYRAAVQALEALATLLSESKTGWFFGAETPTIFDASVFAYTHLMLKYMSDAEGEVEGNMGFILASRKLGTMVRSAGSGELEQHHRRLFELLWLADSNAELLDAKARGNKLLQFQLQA

[8] = molecular target: T2, His9-Tob38 (Tob38 with a 9x His tag, N. …); assay: native gel or EMSA
[9] = molecular target: T1, His9-Tob37 (Tob37 with a 9x His tag, N. …); assay: native gel or EMSA

For “Tob55 (endogenous; long, intermediate and short isoforms) (natural protein)”, the stoichiometry N [1] was 1, the stoichiometry N [2] was 1 and the stoichiometry N [3] was 2.

For “His9-Tob55, short isoform (N. crassa strain Tob55 short HT) (natural protein)”, the stoichiometry N [4] was 2.

B1: Tob38 (endogenous) (natural protein, N. crassa, UniProt V5IPB4 1-340, looked up)
chain: T2 sequence (looked up)
In the case of B1, the stoichiometry N [5] is reported as 1 and the “stoichiometry N” value [6] is reported as 1.

B2: Tob37 (endogenous) (natural protein, N. crassa, UniProt Q7SFC4 1-442, looked up)
chain: T1 sequence (looked up)
B2 was tested, and the stoichiometry N [5] was 1 and the “stoichiometry N” value [7] was 1.

B3: Mdm10 (endogenous) (natural protein, N. crassa, UniProt Q7SBE0 1-480, looked up)
chain: MREFMNYITNAFYGATGWNEDNKYNELNATSRELIDFPLPRGLRLTLSSLATPHFATSYQLGSVGVVDGSISYLHSSIPLTHIAAQSDKIPLPALLRCYRRLHDLRSPGQQHYILDADPLSGLPPPPQSARALLGAASDAAVAGGALDGGNTDQDLGIYTHSLLYGRLYLPKSLLEGMIIKRFTQALQVQVRAVSEQSLRNGGTILGLVQYDKGKYGLEGLYSTDGGLLGFRGLYNFGGDASSSTCDPWTPTPGENNNNNNNNNNNNNGNAQAGEKERIYGRFSVGGELYYGTLNKSGGMSLGARFATLPAHRGTPLTATLTINPLMGNINATYALLAREYCSLATRVDFNVYSYESEWAVGMELWSNRRPAGFLLGASPSNDFEPEPHPPRKKERSFQAKMEWRLDDPEPEPEPQPTPKTRKNDEYKGVLKARLDNNLRMGLLWEGRAKSLIFSIGTGIDLHKLGEPFRSLGLEVQYSS
With B3 the “stoichiometry N” value [8] was 1 and the “stoichiometry N” value [9] was 1.
